Experimental data published in patent US20220112288A1 (published 2022).

Key:
[1] = target: T1, human CD4 on cells (SKW3 cells; human PBMCs) (human, UniProt P01730 26-458); test: SKW3 FACS binning; competitor OKT4-A488 added after supernatant (background 2163, max binding 8200)
T1 construct: whole, on cells; SKW3 CD4 knockout cells served as the negative cell line for the WT vs KO ratios; also called hCD4; SKW3 WT

[2] = target: T1, human CD4 on cells (SKW3 cells; human …); test: FACS confirmation, supernatant on human PBMCs, anti-mFc 647, CD4+ gate
[3] = target: T2, huCD4-HIS (human, UniProt P01730 26-390, limits assumed); test: ELISA binning; competitor Ibalizumab, 100 ng/mL huCD4-HIS, anti-HIS HRP detection (background 45, max binding 3000000)
T2 construct: Named only in the head of the ELISA binning column; not shown: HIS tag

[4] = target: T1, human CD4 on cells (SKW3 cells; human …); test: FACS confirmation, supernatant on SKW3 WT cells, anti-mFc 647 (Bkrd gMFI = 3300)
[5] = target: T1, human CD4 on cells (SKW3 cells; human …); test: FACS confirmation, supernatant on human PBMCs, anti-mFc 647, percent of viable cells
[6] = target: T1, human CD4 on cells (SKW3 cells; human …); test: SKW3 FACS binning; competitor OKT4a added after supernatant, anti-hu A647 secondary (background 5000, max binding 35000)
[7] = target: T1, human CD4 on cells (SKW3 cells; human …); test: FACS primary screen, non-clonal hybridoma supernatant; SKW3 WT vs SKW3 CD4 KO cells, anti-hKappa-FITC
[8] = target: T1, human CD4 on cells (SKW3 cells; human …); test: FACS confirmation, supernatant on SKW3 WT cells, anti-hu Kappa FITC (Bkrd gMFI = 2500)
[9] = target: T1, human CD4 on cells (SKW3 cells; human …); test: FACS primary screen, non-clonal hybridoma supernatant; SKW3 WT vs SKW3 CD4 KO cells, anti-mFc-647
[10] = target: T1, human CD4 on cells (SKW3 cells; human …); test: SKW3 FACS binning; competitor RPA-T4-PE-Dazzle 594 added after supernatant (background 783, max binding 15000)

Binder | OKT4 A488 signal in binning [1] | CD4+ gate RL1 Binding [2] | Ibalizumab ELISA binning signal [3] | gMFI [4] | CD4+ Percent Bound of Viable [5] | OKT4a anti-hu A647 signal in binning [6] | SKW3 WT vs KO anti-hKappa-FITC [7] | gMFI [8] | SKW3 WT vs KO anti-mFc-647 [9] | RPA-T4-PE-Dazzle 594 signal in binning [10]
75110_08A13A (antibody, V domains shown, Tested as non-clonal hybridoma supernatant (AlivaMab Mouse Kappa), detected with anti-mouse Fc and anti-human kappa) VH: EVQLVESGGGLVQPGGSLRLSCAASGFIFSSYWMSWVRQAPGKGLEWVANIKQDGSEKYYMDSVKGRFTISRDNAKNSLYLQMNSLRAEDTAVYYCARDNSYYYYGMDVWGQGTTVTVSS VL: AIQMTQSPSSLSASVGDRVTITCRASQGIRDDLGWYQQKPGKAPKLLIFAASSLQSGVPSSFSGSGSGTDFTLTISSLQPEDFATYYCLHHYNYPYTFGQGTKLEIK | 7980 | 258000 | 230000 | 9180 gMFI | 29% | 42000 | 1 fold | 3140 gMFI | 2.7 fold | 13300
75110_02K11A (antibody, V domains shown, Tested as non-clonal hybridoma supernatant (AlivaMab Mouse Kappa), detected with anti-mouse Fc and anti-human kappa) VH: QVQLQESGPGLVKPSQTLSLTCTVSGGSISSGFYYWTWIRQHPGKGLEWIGYISYSGNTYYNPSFKSRLTISVDTSKSQFSLKLSSVTAADTAVYYCARDRPSNFDAFDIWGQGTMVTVSS VL: not shown | 8730 | 296000 | 1.99e+06 | 24800 gMFI | 29% | 32200 | 3.3 fold | 6660 gMFI | 10.3 fold | 15800
75110_02I18A (antibody, V domains shown, Tested as non-clonal hybridoma supernatant (AlivaMab Mouse Kappa), detected with anti-mouse Fc and anti-human kappa) VH: EVQVVESGGGLVQPGGSLRLSCAASGFTFSSYDMHWVRQATGKGLEWVSTIGTAGDTYYPGSVKGRFTISRENAKNSLYLQMNSLRAGDTAVYYCARGGYYYYGMDVWGQGTTVTVSS VL: EIVLTQSPGTLSLSPGERATLSCRASQSVSSSYLAWYQQKPGQSPRLLIHGASSRATGIPDRVSGSGSGTDFTLTISRLEPEDFAVYYCQQYGSSPFTFGPGTKVDIK | 9230 | 275000 | 291000 | 16500 gMFI | 29% | 44800 | 2.2 fold | 5370 gMFI | 4.2 fold | 4410
75110_05F19A (antibody, V domains shown, Tested as non-clonal hybridoma supernatant (AlivaMab Mouse Kappa), detected with anti-mouse Fc and anti-human kappa) VH: EVQLVESGGGLVQPGGSLRLSCAASGFTFSNYDVHWVRQPTGKGLEWVSTIGTAGDTYYPGSVKGRFTISRENAKNSLYLQMNSLRAGDTAVYYCARGGYDYYGLDVWGQGTTVTVSS VL: not shown | 8920 | 281000 | 45 | 42200 gMFI | 31% | 30000 | 2.8 fold | 8510 gMFI | 10.6 fold | 15900
75110_05A11A (antibody, V domains shown, Tested as non-clonal hybridoma supernatant (AlivaMab Mouse Kappa), detected with anti-mouse Fc and anti-human kappa) VH: EVQLVESGGGLVKPGGSLTLSCAASGFTFSNTWMSWVRQAPGKGLEWVGRIKSKIDGGTTDYAAPVKGRFTISRDDSKNTLYLQMNSLKTEDTAVYYCTTSGTYSSGWGLFDYWGQGTLVTVSS VL: DIQMTQSPSSLSASVGDRVTITCQASQDISNYLNWYQQKPGKAPKLLIYDTSNLEAGVPSRFSGSGSGTHFTLTISSLQPEDIATYYCQQYDNLPFTFGGGTRVEIK | 8160 | 247000 | 45 | 24400 gMFI | 26% | 35000 | 1.8 fold | 6620 gMFI | 3.4 fold | 17200
75110_01L08A (antibody, V domains shown, Tested as non-clonal hybridoma supernatant (AlivaMab Mouse Kappa), detected with anti-mouse Fc and anti-human kappa) VH: QVQLQESGPGLVKPSETLSLTCTVSGGSISHYYWSWIRQPPGKGLEWIGYIHYSGTTNYNPSLKSRVTISVDTSKNQLSLKLRSVTAADTAVYYCARDQGFSSGGMDVWGQGTTVTVSS VL: not shown | 9750 | 200000 | 58200 | 18700 gMFI | 27% | 9030 | 2.6 fold | 5520 gMFI | 4.3 fold | 19800
75110_04G02A (antibody, V domains shown, Tested as non-clonal hybridoma supernatant (AlivaMab Mouse Kappa), detected with anti-mouse Fc and anti-human kappa) VH: not shown VL: DIVMTQSPDSLAVSLGERATINCKSSQSVLYSSNNKNYLAWYQQKPGQPPKLLFYWASARESGVPDRFSGSGSGTDFTLTISSLQAEDVALYYCQQYFGSFPTFGQGTKLEIK | 9330 | 178000 | 45 | 12000 gMFI | 27% | 22500 | 1.5 fold | 4060 gMFI | 6.6 fold | 12100
75110_02E22A (antibody, V domains shown, Tested as non-clonal hybridoma supernatant (AlivaMab Mouse Kappa), detected with anti-mouse Fc and anti-human kappa) VH: QVQLQESGPGLVKPSETLSLTCTVSGGSISSFYWSWIRQPAGKGLEWIGRIYTSGSTNYNPSLKSRVTMSVDTSKNQFSLKLSSVTAADTAVYYCARELEKRNYYGMDVWGQGTTVTVSS VL: DIQMTQSPSSLSASVGDRVTITCQASHDISNYLNWYQQKPGKAPKLLIFDASTLETGVPSRFSGSGSGTYFTFTIRSLQPEDIATYYCQQYDSLPLTFGGGTKVEIK | 8480 | 276000 | 1.86e+06 | 17300 gMFI | 31% | 41900 | 1.6 fold | 4280 gMFI | 4.7 fold | 15300
75110_07J24A (antibody, V domains shown, Tested as non-clonal hybridoma supernatant (AlivaMab Mouse Kappa), detected with anti-mouse Fc and anti-human kappa) VH: QAQLQESGPGLVKPSETLSLTCTVSGGSISSYYYNWIRQPAGKGLEWIGRIYTSGRTDYNPSLKSRVTMSADTSKNQFSLKLSSVTAADTAVYYCARDEGPTDAFDIWGQGTMVTVSS VL: DIVMTQTPLSLPVTPGEPASISCRSSQSLLDSDDGNTYLDWYLQKPGQSPHLLIYTLSYRASGVPDRFSGSGSGSDFTLKISRVEAEDVGVYYCMQRIEFPFTFGPGTKVDIK | 7730 | 234000 | 215000 | 30900 gMFI | 33% | 33800 | 1.8 fold | 5830 gMFI | 6.2 fold | 8460
75110_03I23A (antibody, V domains shown, Tested as non-clonal hybridoma supernatant (AlivaMab Mouse Kappa), detected with anti-mouse Fc and anti-human kappa) VH: QVQLQESGPGLVKPSETLSLTCTASGGSITSYYWNWIRQPAGKGLEWIGRIYTSGSTNYNPSLKSRVTMSVDTSKNQFSLKLSSVTAADTAVYYCARDPGYSDAFNIWGQGTMVTVSS VL: not shown | 9920 | 241000 | 1.26e+06 | 13800 gMFI | 28% | 15900 | 1.9 fold | 5140 gMFI | 4.1 fold | 14000
75110_01C18A (antibody, V domains shown, Tested as non-clonal hybridoma supernatant (AlivaMab Mouse Kappa), detected with anti-mouse Fc and anti-human kappa) VH: EVQLVESGGGLIQPGGSLRLSCAASGFTVSSNYMNWVRQAPGKGLEWVSVIYAGDNTYSADSVKGRFTISRDNSNNTLCLQMNSLRAEDTAVYYCAREGGTTGAFDIWGQGTMVTVSS VL: DIQMTQSPSSVSASVGDRVTITCRASQGINSWLAWYQQKPGKAPKLLIYAASSLQSGVPSRFSGSGSGTDFTLTISSLQPEDFATYYCQQGNSFPYTFGQGTKLEIK | 9490 | 308000 | 1.78e+06 | 34900 gMFI | 31% | 36200 | 3.7 fold | 6530 gMFI | 14.7 fold | 16500
75110_05E13A (antibody, V domains shown, Tested as non-clonal hybridoma supernatant (AlivaMab Mouse Kappa), detected with anti-mouse Fc and anti-human kappa) VH: EVQLVESGGDLVKPGGSLRLSCAASGFSFSNAWMSWVRQAPGKGLEWVGRVESKTDGGTTDYAAPVKDRFTISRDDSKYTLYLQMNSLKTEDSAVYYCTIGGGFGLELYGFFDYWGQGTLVTVSS VL: DIQMTQSPSTLSASVGDRVTITCRASQSISSWLAWYQQKPGKAPMLLIYKASSLESGVPSRFSGSGSGTEFTLTISSLQPDDFATYYCLQYNSYYTFGQGTKLEIK | 9330 | 231000 | 45 | 45600 gMFI | 26% | 36400 | 1.9 fold | 8050 gMFI | 5.8 fold | 16500
